# T1: fusion protein of SEQ ID NO: 16 (Nanoluc luciferase at the C-terminus, VWF A2 domain aa1574-1668, Flag-tag, C-terminal His-tag)
# T1 chain: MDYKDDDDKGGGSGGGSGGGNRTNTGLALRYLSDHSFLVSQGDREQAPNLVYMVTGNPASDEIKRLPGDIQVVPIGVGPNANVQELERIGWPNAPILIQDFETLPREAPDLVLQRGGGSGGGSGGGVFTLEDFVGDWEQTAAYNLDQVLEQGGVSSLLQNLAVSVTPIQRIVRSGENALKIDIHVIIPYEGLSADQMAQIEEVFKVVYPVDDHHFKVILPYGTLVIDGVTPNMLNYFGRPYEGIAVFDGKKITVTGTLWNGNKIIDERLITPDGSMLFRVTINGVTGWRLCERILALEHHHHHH
# T2: fusion protein of SEQ ID NO: 15 (Nanoluc luciferase at the N-terminus, VWF A2 domain aa1574-1668, Flag-tag, C-terminal His-tag)
# T2 chain: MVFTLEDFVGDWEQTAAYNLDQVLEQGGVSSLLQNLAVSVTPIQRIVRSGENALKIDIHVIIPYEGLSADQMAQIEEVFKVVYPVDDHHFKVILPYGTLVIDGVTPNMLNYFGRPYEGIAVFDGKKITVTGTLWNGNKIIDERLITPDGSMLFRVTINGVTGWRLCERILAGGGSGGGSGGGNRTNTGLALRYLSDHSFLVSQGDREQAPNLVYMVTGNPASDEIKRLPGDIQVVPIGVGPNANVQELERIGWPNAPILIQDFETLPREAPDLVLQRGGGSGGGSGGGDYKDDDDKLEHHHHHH
# T3: N-NLuc-VWFA2-C fusion protein (SEQ ID NO: 17)
# T3 chain: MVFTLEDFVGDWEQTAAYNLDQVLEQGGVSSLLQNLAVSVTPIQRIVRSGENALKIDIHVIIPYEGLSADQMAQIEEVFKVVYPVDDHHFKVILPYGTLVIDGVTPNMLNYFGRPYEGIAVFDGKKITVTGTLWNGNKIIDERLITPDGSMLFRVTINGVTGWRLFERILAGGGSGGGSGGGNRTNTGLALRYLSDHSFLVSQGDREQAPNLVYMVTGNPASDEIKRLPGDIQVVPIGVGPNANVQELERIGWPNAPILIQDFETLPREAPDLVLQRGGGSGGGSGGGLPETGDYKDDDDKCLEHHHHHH
# Tests used:
# [1] = molecular target: T1, fusion protein of SEQ ID NO: 16 …
# [2] = molecular target: T2, fusion protein of SEQ ID NO: 15 …
# [3] = molecular target: T3, N-NLuc-VWFA2-C fusion protein (SEQ ID …)
# [4] = molecular target: fusion protein of SEQ ID NO: 16 (Nanoluc luciferase at the C-terminus, VWF A2 domain aa1574-1668, Flag-tag, C-terminal His-tag); assay: cell-based or functional assay
binder,measurement,setting,value
ADAMTS13 (protein) AAGGILHLELLVAVGPDVFQAHQEDTERYVLTNLNIGAELLRDPSLGAQFRVHLVKMVILTEPEGAPNITANLTSSLLSVCGWSQTINPEDDTDPGHADLVLYITRFDLELPDGNRQVRGVTQLGGACSPTWSCLITEDTGFDLGVTIAHEIGHSFGLEHDGAPGSGCGPSGHVMASDGAAPRAGLAWSPCSRRQLLSLLSAGRARCVWDPPRPQPGSAGHPPDAQPGLYYSANEQCRVAFGPKAVACTFAREHLDMCQALSCHTDPLDQSSCSRLLVPLLDGTECGVEKWCSKGRCRSLVELTPIAAVHGRWSSWGPRSPCSRSCGGGVVTRRRQCNNPRPAFGGRACVGADLQAEMCNTQACEKTQLEFMSQQCARTDGQPLRSSPGGASFYHWGAAVPHSQGDALCRHMCRAIGESFIMKRGDSFLDGTRCMPSGPREDGTLSLCVSGSCRTFGCDGRMDSQQVWDRCQVCGGDNSTCSPRKGSFTAGRAREYVTFLTVTPNLTSVYIANHRPLFTHLAVRIGGRYVVAGKMSISPNTTYPSLLEDGRVEYRVALTEDRLPRLEEIRIWGPLQEDADIQVYRRYGEEYGNLTRPDITFTYFQPKPRQAWVWAAVRGPCSVSCGAGLRWVNYSCLDQARKELVETVQCQGSQQPPAWPEACVLEPCPPYWAVGDFGPCSASCGGGLRERPVRCVEAQGSLLKTLPPARCRAGAQQPAVALETCNPQPCPARWEVSEPSSCTSAGGAGLALENETCVPGADGLEAPVTEGPGSVDEKLPAPEPCVGMSCPPGWGHLDATSAGEKAPSPWGSIRTGAQAAHVWTPAAGSCSVSCGRGLMELRFLCMDSALRVPVQEELCGLASKPGSRREVCQAVPCPARWQYKLAACSVSCGRGVVRRILYCARAHGEDDGEEILLDTQCQGLPRPEPQEACSLEPCPPRWKVMSLGPCSASCGLGTARRSVACVQLDQGQDVEVDEAACAALVRPEASVPCLIADCTYRWHVGTWMECSVSCGDGIQRRRDTCLGPQAQAPVPADFCQHLPKPVTVRGCWAGPCVGQGTPSLVPHEEAAAPGRTTATPAGASLEWSQARGLLFSPAPQPRRLLPGPQENSVQSSACGRQHLEPTGTIDMRGPGQADCAVAIGRPLGEVVTLRVLESSLNCSAGDMLLLWGRLTWRKMCRKLLDMTFSSKTNTLVVRQRCGRPGGGVLLRYGSQLAPETFYRECDMQLFGPWGEIVSPSLSPATSNAGGCRLFINVAPHARIAIHALATNMGAGTEGANASYILIRDTHSLRTTAFHGQQVLYWESESSQAEMEFSEGFLKAQASLRGQYWTLQSWVPEMQDPQSWKGKEGT,amount of fusion protein cleaved off and transferred to the new plate,[1],~120 ng VWFA2-Nanoluc
same,"luminescence (RLU) against NPP concentration, FIG. 1",[1],This fusion protein is also cleaved by ADAMTS13 but here is not as much influence on light emission
same,luminescence (RLU) of fusion protein left on anti-VWF-A2 coated plate after incubation with 0-20% NPP,[1],did not demonstrate an effect of an increasing ADAMTS13 concentration
same,luminescence (RLU) transferred from anti-FLAG plate after A13 at 0-1 IU/mL,[1],a signal increase from ~1.5 towards ~1.7 M RLU for C-Flag
same,share of the initially offered quantity that was cleaved off and transferred,[1],~12% of the initially offered quantity to the wells
same,luminescence (RLU) of fusion protein left on anti-VWF-A2 coated plate after incubation with 0-20% NPP,[2],"shows a decreasing signal when the concentration NPP increases, suggesting that ADAMTS13 cleaves the fusion protein"
same,"SDS-PAGE (4-15% gradient, Coomassie Blue), FIG. 10",[3],shows the expected fragments of the fusion-protein (SEQ ID NO: 17) after cleavage by adding ADAMTS13
same,"luminescence (RLU) left on the Ni-NTA binding plate, A13 from lithium-heparin plasma, FIG. 8C",[4],400000 RLU

# — patent US20260218270A1
